The series concerns T1, Gs12-10 (uncultured bacterium (metagenome)?).
T1 sequence: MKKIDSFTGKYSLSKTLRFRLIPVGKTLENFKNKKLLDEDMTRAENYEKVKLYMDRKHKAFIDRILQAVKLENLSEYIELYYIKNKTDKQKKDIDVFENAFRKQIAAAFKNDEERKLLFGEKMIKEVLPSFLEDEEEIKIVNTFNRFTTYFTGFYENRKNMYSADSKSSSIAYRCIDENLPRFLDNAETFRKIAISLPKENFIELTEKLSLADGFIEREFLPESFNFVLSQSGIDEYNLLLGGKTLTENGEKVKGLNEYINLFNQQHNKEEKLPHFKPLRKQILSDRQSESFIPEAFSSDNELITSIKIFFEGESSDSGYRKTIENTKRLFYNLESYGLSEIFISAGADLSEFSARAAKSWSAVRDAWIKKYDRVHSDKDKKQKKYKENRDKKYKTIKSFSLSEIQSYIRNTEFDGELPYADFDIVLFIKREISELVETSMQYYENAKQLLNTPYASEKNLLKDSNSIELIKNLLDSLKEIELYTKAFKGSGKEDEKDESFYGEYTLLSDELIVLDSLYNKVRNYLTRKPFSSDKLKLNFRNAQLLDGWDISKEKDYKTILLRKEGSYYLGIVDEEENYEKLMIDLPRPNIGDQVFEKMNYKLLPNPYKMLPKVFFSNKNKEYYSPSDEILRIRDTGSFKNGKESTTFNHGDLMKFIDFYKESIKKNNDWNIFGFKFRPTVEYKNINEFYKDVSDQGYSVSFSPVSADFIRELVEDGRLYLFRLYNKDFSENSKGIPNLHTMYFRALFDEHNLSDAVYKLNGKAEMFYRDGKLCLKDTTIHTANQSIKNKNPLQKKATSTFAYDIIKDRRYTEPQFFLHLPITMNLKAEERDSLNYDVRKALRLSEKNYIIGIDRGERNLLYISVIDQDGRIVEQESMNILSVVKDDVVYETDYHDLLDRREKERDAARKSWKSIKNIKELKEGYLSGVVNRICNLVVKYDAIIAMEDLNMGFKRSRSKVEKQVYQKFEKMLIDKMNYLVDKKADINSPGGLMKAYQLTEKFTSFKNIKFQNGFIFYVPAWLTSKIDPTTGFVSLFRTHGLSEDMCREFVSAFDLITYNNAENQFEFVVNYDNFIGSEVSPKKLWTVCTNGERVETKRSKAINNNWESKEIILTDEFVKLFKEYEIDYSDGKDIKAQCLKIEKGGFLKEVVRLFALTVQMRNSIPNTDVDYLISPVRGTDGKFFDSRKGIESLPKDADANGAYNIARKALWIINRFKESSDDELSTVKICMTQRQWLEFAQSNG
As to the kind of experiment: cleavage_in_vitro. Conditions: PAM ATTT; CutSmart buffer, 37 C, 2 h.

Our source for the activity values is patent US20240368675.

In the case of “crRNA-ATTT pUC19 ; pUC19 circular plasmid”, the activity stood at 100 % linearised.
